Publication PMC5823874, “The structure of iPLA2β reveals dimeric active sites and suggests mechanisms of regulation and localization” (Nature Communications, 2018)
No end group written: not given here.

Target: Calmodulin (CaM), unmodified (UniProt P0DP23 1-149)
Test: fluorescence polarisation; synthetic FAM-labeled peptides of iPLA2β with CaM (Supplementary Figure 7h)
Details: both partners purified

Row | Kd | Binder
1 | 2.5 ± 0.4 µM | RKGQGNKVKK (also: FAM label (position not given here)) [Synthetic FAM-labeled peptide corresponding to the 1-9-14 motif of iPLA2β]
2 | 5.9 ± 0.8 µM | AWSEMVGIQYFR (also: FAM label (position not given here)) [Synthetic FAM-labeled peptide corresponding to the IQ motif of iPLA2β]
